# Assay results from patent US20160193299A1, “MODIFIED NUCLEOSIDE, NUCLEOTIDE, AND NUCLEIC ACID COMPOSITIONS” (Moderna Therapeutics, Inc., priority 2011, published 2016).
# Tests used:
# [1] = test system: peripheral blood mononuclear cells (PBMC); test: Modified RNA transfected in PBMC: G-CSF expression at 6 and 18 hours (ELISA); format: cell-based, human
# Method: (§1) 500 ng of G-CSF mRNA modified with 5-methylcytosine (5mC) and pseudouridine (pseudoU) or unmodified G-CSF mRNA was transfected with 0.4 uL of Lipofectamine 2000 into peripheral blood mononuclear cells (PBMC) from three normal blood donors (D1, D2, and D3). […] The supernatant was harvested 6 hours and 18 hours after transfection and run by ELISA to determine the protein expression. The expression of G-CSF, IFN-alpha, and TNF-alpha for Donor 1 is shown in Table 86, Donor 2 is shown in Table 87 and Donor 3 is shown in Table 88.
# [2] = test system: peripheral blood mononuclear cells (PBMC); test: IFN-alpha and TNF-alpha expression in transfected PBMC (ELISA) and PC ratio; format: cell-based, human; details: for IFN-alpha expression / TNF-alpha Expression: ELISA 22 hours after transfection
# Method: The supernatant was harvested and run by ELISA 22 hours after transfection to determine the protein expression.
# [3] = test system: peripheral blood mononuclear cells (PBMC); test: Modified RNA transfected in PBMC: IFN-alpha and TNF-alpha at 6 and 18 hours (ELISA); format: cell-based, human
# Method: as §1
# [4] = test system: peripheral blood mononuclear cells (PBMC); test: Example 46A percent-modified G-CSF mRNA transfected in PBMC, G-CSF ELISA; format: cell-based, human
# Method: 960 ng of G-CSF mRNA modified with 5-methylcytosine (5mC) and pseudouridine (pseudoU) or unmodified G-CSF mRNA was transfected with 0.8 uL of Lipofectamine 2000 into peripheral blood mononuclear cells (PBMC) from three normal blood donors (D1, D2, D3). […] The supernatant was harvested and run by ELISA 22 hours after transfection to determine the protein expression. The expression of IFN-alpha and TNF-alpha may be a secondary effect from the transfection of the G-CSF mRNA.
# [5] = test system: peripheral blood mononuclear cells (PBMC); test: G-CSF expression in PBMC transfected with partially modified G-CSF mRNA (ELISA); format: cell-based, human; details: for G-CSF Expression: ELISA 22 hours after transfection
# Method: 480 ng of G-CSF mRNA modified with 5-methylcytosine (5mC) and pseudouridine (pseudoU) or unmodified G-CSF mRNA was transfected with 0.4 uL of Lipofectamine 2000 into peripheral blood mononuclear cells (PBMC) from three normal blood donors (D1, D2, and D3). […] The supernatant was harvested and run by ELISA 22 hours after transfection to determine the protein expression. The expression of IFN-alpha and TNF-alpha may be a secondary effect from the transfection of the G-CSF mRNA.
# [6] = test system: HEK293; test: Example 46B percent-modified G-CSF mRNA transfected in HEK293, secreted G-CSF ELISA; format: cell-based, human; details: HEK293, 250 ng mRNA with RNAiMAX, supernatant after 16 hours
# Method: Human embryonic kidney epithelial (HEK293) cells were seeded on 96-well plates at a density of 30,000 cells per well in 100 ul cell culture medium. 250 ng of modified G-CSF mRNA (SEQ ID NO: 6; polyA tail of approximately 160 nucleotides not shown in sequence; 5′cap, Cap1) formulated with RNAiMAX™ (Invitrogen, Carlsbad, Calif.) was added to a well. The G-CSF was completely modified with 5mC and pseudoU (100% modification), not modified with 5mC and pseudoU (0% modification) or was partially modified with 5mC and pseudoU so the mRNA would contain 75% modification, 50% modification or 25% modification. Control samples (AK 5/2, mCherry (SEQ ID NO: 7; polyA tail of approximately 160 nucleotides not shown in sequence; 5′cap, Cap1; fully modified 5mC and pseudoU) and untreated) were also analyzed. […] The supernatants were harvested after 16 hours and the secreted G-CSF protein was analyzed by ELISA.
# [7] = test system: human EPO; test: Example 43 multi-dose/multi-administration IM, serum human EPO; format: in vivo, Sprague-Dawley rats; details: rat serum 13 h post I.M.
# Method: The dosing vehicle (F. buffer) was used as a control.
# Animals (n=5), Sprague-Dawley rats, were injected IM (intramuscular) for the single unit dose of 100 ug (delivered to one thigh). For multi-dosing 6 doses of 100 ug (delivered to two thighs) were used for both EPO and G-CSF mmRNA. Control dosing involved use of buffer at a single dose. Human EPO blood levels were evaluated 13 hrs post injection.
# Human EPO protein was measured in rat serum 13 h post I.M. Five groups of rats were treated and evaluated.
# [8] = test system: human EPO; test: Example 48 split dose study IM, serum human EPO, product per unit drug and dose splitting factor; format: in vivo, mice; details: for Avg. pmol/mL human EPO: serum 13 h
# Method: The dosing vehicle (F. buffer) consisted of 150 mM NaCl, 2 mM CaCl2, 2 mM Nat phosphate (1.4 mM monobasic sodium phosphate; 0.6 mM dibasic sodium phosphate), and 0.5 mM EDTA, pH 6.5. The pH was adjusted using sodium hydroxide and the final solution was filter sterilized.
# Animals (n=5) were injected IM (intramuscular) for the single unit dose of 100 ug. For multi-dosing, two schedules were used, 3 doses of 100 ug and 6 doses of 100 ug. For the split dosing scheme, two schedules were used, 3 doses at 33.3 ug and 6 doses of 16.5 ug mmRNA. Control dosing involved use of buffer only at 6 doses. […] Blood and muscle tissue were evaluated 13 hrs post injection.
# Human EPO protein was measured in mouse serum 13 h post I.M. single, multi- or split dosing of the EPO mmRNA in buffer. Seven groups of mice (n=5 mice per group) were treated and evaluated.
# The splitting factor is defined as the product per unit drug divided by the single dose product per unit drug (PUD). For example for treatment group 2 the value 0.28 or product (EPO) per unit drug (mmRNA) is divided by the single dose product per unit drug of 0.14. The result is 2. Likewise, for treatment group 4, the value 1.1 or product (EPO) per unit drug (mmRNA) is divided by the single dose product per unit drug of 0.14. The result is 7.9. Consequently, the dose splitting factor (DSF) may be used as an indicator of the efficacy of a split dose regimen. For any single administration of a total daily dose, the DSF should be equal to 1. Therefore any DSF greater than this value in a split dose regimen is an indication of increased efficacy.
# [9] = PBMC, from averages of Tables 83 and 84
molecule,measurement,setting,value
"100% modification: G-CSF mRNA (SEQ ID NO: 6, Cap1) completely modified with 5mC and pseudoU (nucleic acid, listed as Homo sapiens, Cap1; fully 5-methylcytidine and pseudouridine modified) GGGAAAUAAGAGAGAAAAGAAGAGUAAGAAGAAAUAUAAGAGCCACCAUGGCCGGUCCCGCGACCCAAAGCCCCAUGAAACUUAUGGCCCUGCAGUUGCUGCUUUGGCACUCGGCCCUCUGGACAGUCCAAGAAGCGACUCCUCUCGGACCUGCCUCAUCGUUGCCGCAGUCAUUCCUUUUGAAGUGUCUGGAGCAGGUGCGAAAGAUUCAGGGCGAUGGAGCCGCACUCCAAGAGAAGCUCUGCGCGACAUACAAACUUUGCCAUCCCGAGGAGCUCGUACUGCUCGGGCACAGCUUGGGGAUUCCCUGGGCUCCUCUCUCGUCCUGUCCGUCGCAGGCUUUGCAGUUGGCAGGGUGCCUUUCCCAGCUCCACUCCGGUUUGUUCUUGUAUCAGGGACUGCUGCAAGCCCUUGAGGGAAUCUCGCCAGAAUUGGGCCCGACGCUGGACACGUUGCAGCUCGACGUGGCGGAUUUCGCAACAACCAUCUGGCAGCAGAUGGAGGAACUGGGGAUGGCACCCGCGCUGCAGCCCACGCAGGGGGCAAUGCCGGCCUUUGCGUCCGCGUUUCAGCGCAGGGCGGGUGGAGUCCUCGUAGCGAGCCACCUUCAAUCAUUUUUGGAAGUCUCGUACCGGGUGCUGAGACAUCUUGCGCAGCCGUGAAGCGCUGCCUUCUGCGGGGCUUGCCUUCUGGCCAUGCCCUUCUUCUCUCCCUUGCACCUGUACCUCUUGGUCUUUGAAUAAAGCCUGAGUAGGAAG",G-CSF,"[1]; PBMC Donor 1, 500 ng mRNA, 6 hours",1815 pg/mL
same,G-CSF,"[1]; PBMC Donor 1, 18 hours",2224 pg/mL
same,G-CSF,"[1]; PBMC Donor 2, 6 hours",2184 pg/mL
same,G-CSF,"[1]; PBMC Donor 2, 18 hours",2432 pg/mL
same,G-CSF,"[1]; PBMC Donor 3, 6 hours",6086 pg/mL
same,G-CSF,"[1]; PBMC Donor 3, 18 hours",7549 pg/mL
same,"ratio of protein/cytokine production versus natural G-CSF mRNA, IFN-alpha",[2]; PBMC,100 fold
same,"ratio of protein/cytokine production versus natural G-CSF mRNA, TNF-alpha",[2]; PBMC,27 fold
same,IFN-alpha expression,[2]; PBMC donor D1,336.5 pg/mL
same,TNF-alpha Expression,[2]; PBMC donor D1,115.0 pg/mL
same,IFN-alpha expression,[2]; PBMC donor D2,78.0 pg/mL
same,TNF-alpha Expression,[2]; PBMC donor D2,15.0 pg/mL
same,IFN-alpha expression,[2]; PBMC donor D3,46.4 pg/mL
same,TNF-alpha Expression,[2]; PBMC donor D3,11.1 pg/mL
same,G-CSF/IFN-alpha (PC ratio),[2]; [9],16
same,G-CSF/TNF-alpha (PC ratio),[2]; [9],52
same,Average IFN-a,[2]; average of PBMC donors D1-D3,153 pg/mL
same,Average TNF-a,[2]; average of PBMC donors D1-D3,47 pg/mL
same,IFN-alpha,"[3]; PBMC Donor 1, 6 hours",1 pg/mL
same,TNF-alpha,"[3]; PBMC Donor 1, 6 hours",0 pg/mL
same,IFN-alpha,"[3]; PBMC Donor 1, 18 hours",13 pg/mL
same,TNF-alpha,"[3]; PBMC Donor 1, 18 hours",0 pg/mL
same,IFN-alpha,"[3]; PBMC Donor 2, 6 hours",0 pg/mL
same,TNF-alpha,"[3]; PBMC Donor 2, 6 hours",0 pg/mL
same,IFN-alpha,"[3]; PBMC Donor 2, 18 hours",7 pg/mL
same,TNF-alpha,"[3]; PBMC Donor 2, 18 hours",11 pg/mL
same,IFN-alpha,"[3]; PBMC Donor 3, 6 hours",7 pg/mL
same,TNF-alpha,"[3]; PBMC Donor 3, 6 hours",11 pg/mL
same,IFN-alpha,"[3]; PBMC Donor 3, 18 hours",658 pg/mL
same,TNF-alpha,"[3]; PBMC Donor 3, 18 hours",11 pg/mL
same,G-CSF Expression,"[4]; PBMC donor D1, 960 ng mRNA",270.3 pg/mL
same,G-CSF Expression,"[4]; PBMC donor D2, 960 ng mRNA",151.6 pg/mL
same,G-CSF Expression,"[4]; PBMC donor D3, 960 ng mRNA",162.2 pg/mL
same,G-CSF Expression,"[5]; PBMC donor D1, 480 ng mRNA + Lipofectamine 2000",1968.9 pg/mL
same,G-CSF Expression,"[5]; PBMC donor D2, 480 ng mRNA",2595.6 pg/mL
same,G-CSF Expression,"[5]; PBMC donor D3, 480 ng mRNA",2835.7 pg/mL
same,Average G-CSF,[5]; average of PBMC donors D1-D3,2466 pg/mL
same,G-CSF Expression,[6],118.4 ng/mL
"Human EPO mmRNA (nucleic acid, listed as Homo sapiens, 5' Cap1, polyA tail ~160 nt) sense: GGGAAAUAAGAGAGAAAAGAAGAGUAAGAAGAAAUAUAAGAGCCACCAUGGGAGUGCACGAGUGUCCCGCGUGGUUGUGGUUGCUGCUGUCGCUCUUGAGCCUCCCACUGGGACUGCCUGUGCUGGGGGCACCACCCAGAUUGAUCUGCGACUCACGGGUACUUGAGAGGUACCUUCUUGAAGCCAAAGAAGCCGAAAACAUCACAACCGGAUGCGCCGAGCACUGCUCCCUCAAUGAGAACAUUACUGUACCGGAUACAAAGGUCAAUUUCUAUGCAUGGAAGAGAAUGGAAGUAGGACAGCAGGCCGUCGAAGUGUGGCAGGGGCUCGCGCUUUUGUCGGAGGCGGUGUUGCGGGGUCAGGCCCUCCUCGUCAACUCAUCACAGCCGUGGGAGCCCCUCCAACUUCAUGUCGAUAAAGCGGUGUCGGGGCUCCGCAGCUUGACGACGUUGCUUCGGGCUCUGGGCGCACAAAAGGAGGCUAUUUCGCCGCCUGACGCGGCCUCCGCGGCACCCCUCCGAACGAUCACCGCGGACACGUUUAGGAAGCUUUUUAGAGUGUACAGCAAUUUCCUCCGCGGAAAGCUGAAAUUGUAUACUGGUGAAGCGUGUAGGACAGGGGAUCGCUGAUAAGCUGCCUUCUGCGGGGCUUGCCUUCUGGCCAUGCCCUUCUUCUCUCCCUUGCACCUGUACCUCUUGGUCUUUGAAUAAAGCCUGAGUAGGAAG",Avg. human EPO,"[7]; 1 × 100 ug, total dose 100 ug",143 pg/mL
same,Avg. human EPO,"[7]; 6 × 100 ug, total dose 600 ug",256 pg/mL
same,Dose Splitting Factor,"[8]; 1 × 100 ug, total 100 ug",1
same,Polypeptide per unit drug,"[8]; 1 × 100 ug, total 100 ug",0.14 pmol/µg
same,Avg. pmol/mL human EPO,"[8]; 1 × 100 ug, total 100 ug",14.3 pmol/mL
same,Dose Splitting Factor,"[8]; 3 × 33.3 ug, total 100 ug",7.9
same,Polypeptide per unit drug,"[8]; 3 × 33.3 ug, total 100 ug",1.1 pmol/µg
same,Avg. pmol/mL human EPO,"[8]; 3 × 33.3 ug, total 100 ug",104.7 pmol/mL
same,Dose Splitting Factor,"[8]; 3 × 100 ug, total 300 ug",2
same,Polypeptide per unit drug,"[8]; 3 × 100 ug, total 300 ug",0.28 pmol/µg
same,Avg. pmol/mL human EPO,"[8]; 3 × 100 ug, total 300 ug",82.5 pmol/mL
same,Dose Splitting Factor,"[8]; 6 × 16.5 ug, total 100 ug",9.3
same,Polypeptide per unit drug,"[8]; 6 × 16.5 ug, total 100 ug",1.3 pmol/µg
same,Avg. pmol/mL human EPO,"[8]; 6 × 16.5 ug, total 100 ug",127.9 pmol/mL
same,Dose Splitting Factor,"[8]; 6 × 100 ug, total 600 ug",3.3
same,Polypeptide per unit drug,"[8]; 6 × 100 ug, total 600 ug",0.46 pmol/µg
same,Avg. pmol/mL human EPO,"[8]; 6 × 100 ug, total 600 ug",273.0 pmol/mL
